Reference: patent publication US12454527B2, “Conjugate monomethyl auristatin E to obtain a composition for treatment of prostate cancer” (priority 2019, dated 2025)
Values joined by “and” are separate entries in the source; they are usually repeats but may differ in a detail not shown here. Equal entries are not always repeated. “Also recorded” adds a separate entry of the source. Where two headings read alike, the source gives them in different places. Starred links: 1 amine or outer side, 2 acyl side, 3 side chain; linkers in the order of their positions; H or OH if unused. Non-standard residues stand in square brackets, D forms with d. Residues, ends and D or L forms follow the SMILES beside them. ξ: configuration not given here. *: point of attachment. GluureaLys(ε-3-ClBenzyl) = O=C(O)CC[C@H](NC(=O)N[C@@H](CCCCN(Cc1cccc(Cl)c1)*)C(=O)O)C(=O)O; Dolaproine = CO[C@@H]([C@@H]1CCCN1)[C@@H](C)C(=O)O; Dil = CC[C@H](C)[C@H](NC)[C@@H](CC(=O)O)OC; X1 = O=C(CCCc1cn(CCCN[*:1])nn1)[*:2]; PABC = O=C(OCc1ccc(N[*:1])cc1)[*:2]; X2 = C[C@@H](N*)[C@@H](O)c1ccccc1; Cit = NC(=O)NCCC[C@H](N)C(=O)O; Suc = O=C(CCC(=O)[*:2])[*:1]; NMeV = CN[C@H](C(=O)O)C(C)C; ξV = CC(C)C(N)C(=O)O; Ahx = NCCCCCC(=O)O

Key:
[1] = Acute toxicity study, single intravenous administration, mice; type: in vivo
From the text: Acute toxicity study of Conjugate (I) product on mice and rats.
• 1. Conjugate (I). • 2. Solubilizer Pluronic F127—in the amount, five-fold greater than the conjugate amount by weight. • 3. Diluent Haemodes infusion solution. • 4. Dimethyl sulfoxide—in the amount of 5% of the prepared volume.
The experiment took white outbred male mice aged about 2 months with body weight of 19-21,g, and also white outbred mature male rats aged about 2 months with body weight 190-210 g.
Acute toxicity study was performed within the intravenous administration. Before the start of the experiment to determine an acute toxicity, the animals were deprived of food and water (mice were deprived for 2 hours, rats—for 10-12 hours), and then weighed. Then each animal received the intravenous drug injection according to the study design, in a volume not exceeding the acceptable single injection volume: 0.5 mL for mice, 2 mL for rats, and fractionally if necessary. The control group of animals received Pluronic solution in Haemodes in the proportion used fort dose preparation of 78 mg/kg for mice and 38 mg/kg for rats. The duration of observation for laboratory animals was 14 days. During this period, visible signs of intoxication were assessed (see Table 9).

[2] = Pharmacokinetics in plasma of rats after a single injection; type: in vivo; conditions: male, white outbred, rat, plasma; for level at 0.08 h / level at 0.25 h / level at 0.5 h / level at 1 h: rats N=6; for level at 0.5 h: 0.50 hour
Experimental: The pharmacokinetics study for the Conjugate (I) product in plasma of rabbits and rats after a single injection.
The leporids and rodents are the standard targets for preclinical studies of potential drug products as well as determining the pharmacokinetic parameters. The rabbits and rats are recommended as test systems to study pharmacokinetic properties of pharmaceutical products by the regulatory documents (FIG. 7, FIG. 8).
This study was performed on healthy awake white outbred mature male rats aged about 3 months with body weight of 190-210 g. […] The pharmacokinetic data, determined from this number of test animals, are sufficient to obtain the primary quantitative characteristics of test product distribution and elimination and the calculation of descriptive statistics parameters.
• 1. Conjugate (1) • 2. Solubilizer Pluronic F127—in the amount, five-fold greater than the conjugate amount by weight. • 3, Diluent—Haemodes infusion solution. • Dimethyl sulfoxide—in the amount of 5% of the prepared volume. • Rabbit experiment (see Tables 5, 6), • Rat experiment (see Tables 7, 8).

[3] = read-out: Concentration in blood plasma, Geometr. mean
[4] = read-out: Concentration in blood plasma, Mean value
[5] = read-out: Concentration in blood plasma, Median

In the case of `CC[C@H](C)[C@@H]([C@@H](CC(=O)N1CCC[C@H]1[C@H](OC)[C@@H](C)C(=O)N[C@H](C)[C@@H](O)c1ccccc1)OC)N(C)C(=O)[C@@H](NC(=O)[C@H](C(C)C)N(C)C(=O)OCc1ccc(NC(=O)[C@H](CCCNC(N)=O)NC(=O)C(NC(=O)CCCc2cn(CCCNC(=O)[C@H](Cc3ccc(O)cc3)NC(=O)[C@H](Cc3ccccc3)NC(=O)CCC(=O)NCCCCCC(=O)N(CCCC[C@H](NC(=O)N[C@@H](CCC(=O)O)C(=O)O)C(=O)O)Cc3cccc(Cl)c3)nn2)C(C)C)cc1)C(C)C` (stereo partly shown) [Conjugate (I)] ({GluureaLys(ε-3-ClBenzyl)-Ahx-Suc}-FY[X1][ξV][Cit][PABC][NMeV]V[Dil][Dolaproine]-X2), the “Body weight dynamics, M ± SD” value ([1]; male mice, 3 mg/kg, Day 5) is reported as −13.2 ± 5.1 % of initial body weight, the “Body weight dynamics (individual animals)” value ([1]; male mice, 3 mg/kg, Day 5, listed as test drug, 3 mg/kg) is reported as −6.3 % of initial body weight and −19.0 % of initial body weight and −15.4 % of initial body weight and −22.1 % of initial body weight and −11.0 % of initial body weight and −11.4 % of initial body weight and −13.3 % of initial body weight and −13.8 % of initial body weight and −5.6 % of initial body weight and −13.9 % of initial body weight and the “Body weight dynamics, M ± SD” value ([1]; male mice, 3 mg/kg, Day 10) is reported as 9.9 ± 11.7 % of initial body weight. For the same compound, the “Body weight dynamics (individual animals)” value ([1]; male mice, 3 mg/kg, Day 10, listed as test drug, 3 mg/kg) was 0.0 % of initial body weight and 16.8 % of initial body weight and 18.8 % of initial body weight and −9.1 % of initial body weight and 18.6 % of initial body weight and 16.3 % of initial body weight and 13.8 % of initial body weight and 17.9 % of initial body weight and 18.9 % of initial body weight and −9.9 % of initial body weight, the “Body weight dynamics, M ± SD” value ([1]; male mice, 3 mg/kg, Day 14) was 29.1 ± 9.1 % of initial body weight and the “Body weight dynamics (individual animals)” value ([1]; male mice, 3 mg/kg, Day 14, listed as test drug, 3 mg/kg) was 36.1 % of initial body weight and 30.5 % of initial body weight and 32.7 % of initial body weight and 13.9 % of initial body weight and 34.3 % of initial body weight and 35.1 % of initial body weight and 25.7 % of initial body weight and 35.7 % of initial body weight and 35.2 % of initial body weight and 11.9 % of initial body weight. The “Body weight dynamics, M ± SD” value ([1]; male mice, 5 mg/kg, Day 5) was −20.9 ± 7.6 % of initial body weight, the “Body weight dynamics (individual animals)” value ([1]; male mice, 5 mg/kg, Day 5, listed as test drug, 5 mg/kg) was −27.1 % of initial body weight and −14.3 % of initial body weight and −28.2 % of initial body weight and −23.8 % of initial body weight and −26.1 % of initial body weight and −6.0 % of initial body weight and −22.4 % of initial body weight and −12.0 % of initial body weight and −21.0 % of initial body weight and −27.8 % of initial body weight and the “Body weight dynamics, M ± SD” value ([1]; male mice, 5 mg/kg, Day 10) was −4.3 ± 13.0 % of initial body weight. For the same compound, the “Body weight dynamics (individual animals)” value ([1]; male mice, 5 mg/kg, Day 10, listed as test drug, 5 mg/kg) was −6.7 % of initial body weight and −12.9 % of initial body weight and 1.0 % of initial body weight and −20.8 % of initial body weight and 13.9 % of initial body weight and −18.0 % of initial body weight and 16.8 % of initial body weight and −5.2 % of initial body weight and −6.8 % of initial body weight, the “Body weight dynamics, M ± SD” value ([1]; male mice, 5 mg/kg, Day 14) was 20.5 ± 10.5 % of initial body weight and the “Body weight effect (summary)” value ([1]; male mice, all test doses) was “decreased growth rate or decreased body weight regarding the initial one”. The Fatality ([1]; male mice, i.v. 3 mg/kg) was 0, the Fatality ([1]; male mice, i.v. 5 mg/kg) was 1 and the Fatality ([1]; male mice, i.v. 6 mg/kg) was 3. The Fatality ([1]; male mice, i.v. 7 mg/kg) was 10, the MTD at 14 days ([1]; male, white outbred, mouse, in vivo, iv, mice, single i.v., read-out: Maximum tolerated dose) was 3 mg/kg and the “Toxic effect (summary)” value ([1]; mice, acute i.v.) was “renal damage, decreased motor activity, dose-dependent hindlimb paresis”. For the same compound, the Signs of intoxication ([1]; mice, single i.v. 2 mg/kg) was “No signs of intoxication”, the Signs of intoxication ([1]; mice, single i.v. 3 mg/kg) was 3-4 days - general health deterioration, the occurring hindlimb paresis and the Signs of intoxication ([1]; mice, single i.v. 7 mg/kg) was 3-4 days - general health deterioration, the occurring hindlimb paresis, decrease movement activity. The Signs of intoxication ([1]; mice, single i.v. 8 mg/kg) was 5 days - all animals had disheveled fur, gastrointestinal bleeding, hindlimb paresis. One animal, the Signs of intoxication ([1]; mice, single i.v. 9 mg/kg, listed as test drug, 9 mg/kg) was “The animals demonstrated a shortness of breath right after administration, the next day - a shortness; also recorded: Days 3 (3), 4 (5), 5 (1), 6 (1)” and the Signs of intoxication ([1]; mice, single i.v. 30 mg/kg) was “All animals were observed with a shortness of breath right after administration, developing”. The Signs of intoxication ([1]; mice, single i.v. 45 mg/kg, listed as test drug, 45 mg/kg) was “All animals were observed with a shortness of breath right after administration, developing; also recorded: died during 12 hours”, the Signs of intoxication ([1]; mice, single i.v. 60 mg/kg) was “All animals were observed with a shortness of breath right after administration, developing” and the LD50 at 14 days ([1]; white outbred, mouse, in vivo, iv, male mice, single i.v., read-out: LD50 (median lethal dose)) was 6.3 mg/kg. The half-life ([2]; intravenous, 1.5 mg/kg, rats, individual animals) was 4.11 h, the MRT last ([2]; intravenous, 1.5 mg/kg, rats, individual animals, read-out: MRT 0-t) was 3.98 h and the level at 0.08 h [2, 3] was 19000 ng/mL. The level at 0.08 h [2, 4] was 26100 ng/mL, the level at 0.08 h [2, 5] was 19100 ng/mL and the level at 0.25 h [2, 3] was 17000 ng/mL. The level at 0.25 h [2, 4] was 19900 ng/mL, the level at 0.25 h [2, 5] was 18000 ng/mL and the level at 0.5 h [2, 3] was 16200 ng/mL. For the same compound, the level at 0.5 h [2, 4] was 18000 ng/mL, the level at 0.5 h [2, 5] was 14300 ng/mL and the level at 1 h [2, 3] was 13400 ng/mL. It also gave a level at 1 h [2, 4] of 15200 ng/mL.
